Source: publication PMC9009768 (PLoS Pathogens, 2022)

Biological target: T1, His-tagged PIAS1 (human, UniProt O75925 1-651)
T1 construct: also called His-PIAS1; purified PIAS1
Experiment: pull-down
Settings: both partners purified

T1 sequence (O75925 whole entry): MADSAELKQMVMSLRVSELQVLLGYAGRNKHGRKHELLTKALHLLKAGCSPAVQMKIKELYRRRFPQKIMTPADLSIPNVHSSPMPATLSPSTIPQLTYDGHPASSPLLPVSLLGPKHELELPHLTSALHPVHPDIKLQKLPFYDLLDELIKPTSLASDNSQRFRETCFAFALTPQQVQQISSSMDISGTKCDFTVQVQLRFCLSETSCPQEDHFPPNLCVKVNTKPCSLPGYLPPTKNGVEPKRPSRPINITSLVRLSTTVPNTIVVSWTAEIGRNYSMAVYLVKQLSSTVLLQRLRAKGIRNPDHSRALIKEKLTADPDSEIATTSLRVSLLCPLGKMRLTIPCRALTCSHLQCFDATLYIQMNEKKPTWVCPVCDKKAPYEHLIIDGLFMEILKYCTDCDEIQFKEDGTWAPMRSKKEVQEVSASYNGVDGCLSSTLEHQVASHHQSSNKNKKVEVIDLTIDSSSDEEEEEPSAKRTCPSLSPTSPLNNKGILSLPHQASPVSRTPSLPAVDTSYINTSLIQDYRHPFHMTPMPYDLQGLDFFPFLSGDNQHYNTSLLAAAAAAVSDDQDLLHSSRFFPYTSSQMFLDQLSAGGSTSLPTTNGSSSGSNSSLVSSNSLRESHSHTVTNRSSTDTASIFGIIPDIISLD

B1: GST-WSNNP (natural protein)
chain: MATKGTKRSYEQMETDGERQNATEIRASVGKMIGGIGRFYIQMCTELKLSDYEGRLIQNSLTIERMVLSAFDERRNKYLEEHPSAGKDPKKTGGPIYRRVDGKWMRELILYDKEEIRRIWRQANNGDDATAGLTHMMIWHSNLNDATYQRTRALVRTGMDPRMCSLMQGSTLPRRSGAAGAAVKGVGTMVMELIRMIKRGINDRNFWRGENGRRTRIAYERMCNILKGKFQTAAQRAMVDQVRESRNPGNAEFEDLIFLARSALILRGSVAHKSCLPACVYGPAVASGYDFEREGYSLVGIDPFRLLQNSQVYSLIRPNENPAHKSQLVWMACHSAAFEDLRVSSFIRGTKVVPRGKLSTRGVQIASNENMETMESSTLELRSRYWAIRTRSGGNTNQQRASSGQISIQPTFSVQRNLPFDRPTIMAAFTGNTEGRTSDMRTEIIRLMESARPEDVSFQGRGVFELSDEKAASPIVPSFDMSNEGSYFFGDNAEEYDN
binding result: binds
